Each block holds one molecule with its values, some of them ahead of it. Ends that are not written are not given here.
How the values were obtained:
Assay type in all cases: cell-based
CCR6 = molecular target: T1, CCR6 (Homo sapiens, UniProt P51684); assay: Internalization of CCR6-EGFP in transiently transfected HEK293 cells; conditions: HEK293 cells transfected with pCCR6-EGFP; 37° C., 2 hours
T1 construct: The cDNA fragment covering the open reading frame for CCR6 chemokine receptor was cloned into pEGFP-N1 vector (CLONTECH); expressed in transfected cells; host or cells: HEK293 (transient)
T1 sequence (P51684 1-374): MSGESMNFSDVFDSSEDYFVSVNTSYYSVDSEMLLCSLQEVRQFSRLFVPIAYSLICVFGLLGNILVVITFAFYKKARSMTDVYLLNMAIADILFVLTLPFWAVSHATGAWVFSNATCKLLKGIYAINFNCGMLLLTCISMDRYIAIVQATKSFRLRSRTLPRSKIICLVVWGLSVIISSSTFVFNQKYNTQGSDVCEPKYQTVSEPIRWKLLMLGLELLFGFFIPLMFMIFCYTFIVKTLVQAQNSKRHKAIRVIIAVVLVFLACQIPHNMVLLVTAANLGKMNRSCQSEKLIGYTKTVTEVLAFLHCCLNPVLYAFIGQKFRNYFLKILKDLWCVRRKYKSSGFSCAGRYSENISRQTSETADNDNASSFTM
Protocol: (§1) The cDNA fragment covering the open reading frame for CCR6 chemokine receptor was cloned into pEGFP-N1 vector (CLONTECH). pCCR6-EGFP transiently expressing HEK293 cells were cultured in glass-bottom dishes in RPMI 1640 with 10% FBS. After 16-24 hours of serum starvation, cells were treated with CKLF1 C-terminal peptides or MIP3α at 37° C. for 2 hours. Cells were washed with cold PBS and fixed with 2% paraformaldehyde in PBS. The subcellular localization of CCR6-EGFP protein was visualized using a Leica TCS-NT confocal fluorescence microscope with a 63× oil immersion lens (Wetzler, Heidelberg, Germany). The excitation and emission wavelengths were 488 and 515-540 nm, respectively.

CCR5 [1] = molecular target: T2, CCR5 (Homo sapiens, UniProt P51681); assay: Calcium flux assay in CCR5-transfected HEK293 cells
T2 construct: The cDNA fragments covering the open reading frames for various chemokine receptors were obtained as follows; expressed in transfected cells; host or cells: HEK293 (transient, electroporation)
T2 sequence (P51681 whole entry, the tested form may be a part): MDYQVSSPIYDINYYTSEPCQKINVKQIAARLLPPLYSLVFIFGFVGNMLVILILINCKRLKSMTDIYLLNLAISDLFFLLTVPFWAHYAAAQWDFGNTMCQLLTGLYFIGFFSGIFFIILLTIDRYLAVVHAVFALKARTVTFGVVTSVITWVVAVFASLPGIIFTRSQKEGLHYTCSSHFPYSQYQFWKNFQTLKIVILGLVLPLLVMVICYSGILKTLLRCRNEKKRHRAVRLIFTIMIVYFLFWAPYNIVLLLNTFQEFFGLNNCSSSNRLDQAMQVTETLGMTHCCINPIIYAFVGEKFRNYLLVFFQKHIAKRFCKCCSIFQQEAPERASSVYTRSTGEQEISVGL
Source text: (§2) The cDNA fragments covering the open reading frames for various chemokine receptors were obtained as follows. CCR4, CCR5 and CCR6 receptors were cloned from a K562 cell cDNA library by polymerase chain reaction (PCR). The primers were designed using the sequences from the following GenBank™ submissions: CCR4 (NM_005508.2), CCR5 (NM_000579) and CCR6 (AY242126). The fragments were cloned into an expression vector pcDI (modified in our lab from pcDNA3 vector (Invitrogen), in which the part between BgI II-Kpn I was replaced by the fragment of pCl vector (Promega) digested with BgI II-Kpn I) or pEGFP-N1 vector (CLONTECH) for efficient expression in HEK293 cells. The sequences coding receptors in expression plasmids were confirmed by DNA sequencing, which is consistent with the sequence submitted in GenBank™.
(§3) HEK293 cells were grown in RPMI 1640 supplemented with 10% heat-inactivated FBS, penicillin (100 U/ml) and streptomycin (100 μg/ml). Every 4×10^6 HEK293 cells in 400 μl were transiently transfected by electroporation with 15 μg of the expression plasmid at 120 V, 20 ms using an electric pulse generator (Electro Square Porator ECM 830, BTX, San Diego, Calif.), and calcium mobilization assay and chemotaxis assays were performed 48 hours later.
(§4) HEK293 cells transfected with pcDI-CCR4 or pcDI-CCR5 were grown in specialized glass-bottom microwell dishes (MatTek Corporation, U.S.A.) and loaded with 10 μM fluo-3/AM in HEPES-buffered saline at 37° C. for 1 hour in the dark. The cells were rinsed with HEPES-buffered saline and stimulated with 167 nM secreted CKLF1 peptides and 100 nM TARC or RANTES, respectively. Fluorescence was monitored at 488 nm (excitation wavelength) and 530 nm (emission wavelength) every 5 second using a Leica TCS-NT confocal fluorescence microscope with a 40× oil immersion lens (Wetzler, Heidelberg, Germany). The measurement was completed at room temperature and each field of cells was selected at random. Images were collected at 5 second intervals for 405 seconds. The images were analyzed for relative fluorescence using Leica confocal software. The relative fluorescence was determined using Microsoft Excel. All calcium flux assays were performed in the presence of extracellular calcium (in the absence of EDTA or EGTA) in the assay buffers. Therefore, both intracellular calcium release and extracellular calcium influx were analyzed.

CCR4 [2] = molecular target: T3, CCR4 (Homo sapiens, UniProt P51679); assay: Chemotaxis assay (48-well microchemotaxis chamber) of HEK293 cells transfected with CCR4
T3 construct: The cDNA fragments covering the open reading frames for various chemokine receptors were obtained as follows; expressed in transfected cells; host or cells: HEK293 (transient, electroporation)
T3 sequence (P51679 1-360): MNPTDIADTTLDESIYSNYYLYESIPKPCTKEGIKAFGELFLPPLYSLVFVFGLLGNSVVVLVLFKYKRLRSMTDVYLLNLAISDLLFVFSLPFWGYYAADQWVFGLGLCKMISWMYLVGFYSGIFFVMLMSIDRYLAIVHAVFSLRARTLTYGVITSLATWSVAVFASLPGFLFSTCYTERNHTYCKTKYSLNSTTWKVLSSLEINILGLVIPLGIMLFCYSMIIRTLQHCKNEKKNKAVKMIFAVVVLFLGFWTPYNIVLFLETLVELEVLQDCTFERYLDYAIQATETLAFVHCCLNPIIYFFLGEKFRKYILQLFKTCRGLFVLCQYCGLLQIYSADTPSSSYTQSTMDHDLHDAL
Protocol: as §3
(§5) The chemotaxis assay was performed using a 48-well microchemotaxis chamber (Neutroprobe; Cabin John, Md., U.S.A.). Chemoattractants were diluted in HEPES-buffered RPMI 1640 medium supplemented with 0.1% BSA and placed in the lower wells (28 μl/well). HEK293 cells transfected with pcDI-CCR4, -CCR5 were resuspended in the same medium at 2×10^6 cells/ml and added to the upper wells (50 μl/well), which were separated from the lower wells by a polyvinylpyrrolidone-free polycarbonate filter with 8-μm pores. The chamber was incubated for 2 hours at 37° C. in 5% CO2 and 95% air. Filters were removed from the chamber, washed, fixed, and stained with Three Step Stain Set. Cells that migrated were counted in 5 randomly selected high power fields (400×) per well. The chemotactic index (CI) was calculated from the number of cells that migrated to the control. Significant chemotaxis was defined as CI>2. In some experiments, cells were pretreated with TARC, RANTES, purified CKLF-myc protein or secreted CKLF1 peptides for 30 min. at 37° C., or 100 ng/ml PTX (ALEXIS Biochemicals Corporation) for 6 hours at 37° C. prior to subsequent stimulations.

CCR5 [3] = molecular target: T2, CCR5; assay: Chemotaxis assay (48-well microchemotaxis chamber) of HEK293 cells transfected with CCR5
Protocol: as §3
as §5, with “In some experiments, cells were pretreated with TARC, RANTES, purified CKLF-myc protein or secreted CKLF1 peptides for 30 min. at 37° C., or 100 ng/ml PTX (ALEXIS Biochemicals Corporation) for 6 hours at 37° C. prior to subsequent stimulations.” left out

U937 cells = assay: Chemotaxis of U937 cells; conditions: for migration (chemotaxis) of U937 cells: C19, C27, RANTES: U937 cells stimulated by 30 ng/ml IFN-γ
Protocol: The chemotaxis assay was performed using a 48-well microchemotaxis chamber (Neutroprobe, Cabin John, Md., U.S.A.). U937 cells were stimulated by 30 ng/ml IFN-γ for 4 days because IFN-γ could increase the expression of chemokine receptors CCR1, CCR3, and CCR5 in U937 cells. Then part cells were incubated with mouse anti CCR5 100 μg/ml, and/or rat anti CCR3 10 μg/ml for 30 minutes at 37° C., and corresponding mouse IgG and rat IgG as controls. Chemoattractants RANTES, C19 and C27 were diluted in HEPES-buffered RPMI 1640 medium supplemented with 0.5% BSA to indicate concentration, and placed in the lower wells (28 μl/well). U937 cells stimulated by IFN-γ were resuspended in the same medium at 1×10^6 cells/ml and added to the upper wells (50 μl/well), which were separated from the lower wells by a polyvinylpyrrolidone-free polycarbonate filter with 5-μm pores pre-coated by 0.001% fibronectin. The chamber was incubated for 2 hours at 37° C. in 5% CO2 and 95% air. Filters were removed from the chamber, washed, fixed, and stained with Three Step Stain Set. Cells that migrated were counted in 5 randomly selected high power fields (400×) per well. The group with no Chemoattractants in the lower wells was used as a control. All samples were assayed twice at least. The chemotactic index (CI) was calculated from the number of cells that migrated to the control. Significant chemotaxis was defined as CI>2.

CCR4 [4] = molecular target: T3, CCR4; assay: Calcium flux assay in CCR4-transfected HEK293 cells
Source text: as §2, §3, §4

CCR4 [5] = molecular target: T3, CCR4; assay: Internalization of CCR4-EGFP in transiently transfected HEK293 cells; conditions: HEK293 cells transfected with pCCR4-EGFP; 37° C., 2 hours
Protocol: as §1, with “CCR4” for “CCR6”, “pCCR4-EGFP” for “pCCR6-EGFP”, “16 to 24” for “16-24”, “hours” for “hours of”, “TARC” for “MIP3α”, “CCR4-EGFP” for “CCR6-EGFP”

Molecule: MIP3α: chemokine used as comparison treatment in the CCR6-EGFP internalization assay [reference compound]
- internalization of CCR6-EGFP (CCR6): internalization of chemokine receptors induced by MIP3α

Molecule: CKLF1-myc protein: recombinant CKLF1-myc protein expressed in Drosophila S2 cells and purified from the supernatant (ALIYRKLLFNPSGPYQKKPVHEKKEVL; not fully specified)
- migration (chemotaxis) of transfected cells (CCR4 [2]; CCR4-transfected HEK293 cells): could induce the chemotaxis
- migration (chemotaxis) of U937 cells (U937 cells): can induce the chemotaxis

Further lines, with some results ahead:

- calcium flux (CCR5 [1]; CCR5-transfected HEK293 cells, 167 nM C27 or C19, 100 nM RANTES): induced calcium flux
- chemotaxis induced after PTX pretreatment (CCR5 [3]; CCR5-transfected HEK293 cells treated with 100 ng/ml PTX at 37° C. for 30 min): completely abolished by PTX
Molecule: RANTES: cognate ligand for CCR5 (peprotech), positive control [reference compound]
- desensitization of the receptor to subsequent stimulation with C27 and C19 (CCR5 [1]; CCR5 transfectants, pretreatment with 100 nM RANTES): desensitized the receptor
- desensitization of the receptor to subsequent stimulation with the purified CKLF1-myc protein (chemotaxis) (CCR4 [2]; CCR4-transfected HEK293, pretreatment): could desensitize the receptor
- desensitization of the receptor to subsequent stimulation with RANTES, C27 or C19 (chemotaxis) (CCR5 [3]; HEK293/CCR5, pretreatment 1 mM RANTES or 2 μg/ml C27 or C19, 37° C., 30 min): could desensitize the receptor
- migration (chemotaxis) of U937 cells (U937 cells): could induce migration
- chemotactic activity after neutralization of chemokine receptors (U937 cells; IFN-γ-stimulated U937 cells, mouse anti CCR5 and/or rat anti CCR3): obviously inhibited

- calcium flux (CCR4 [4]; CCR4-transfected HEK293 cells, 167 nM C27 or C19, 100 nM TARC): induced calcium flux
- chemotaxis induced after PTX pretreatment (CCR4 [2]; CCR4-transfected HEK293 cells treated with 100 ng/ml PTX at 37° C. for 30 min): completely abolished by PTX
B1: TARC: cognate ligand for CCR4 (peprotech), positive control (protein)
chain: ARGTNVGRECCLEYFKGAIPLRKLKTWYQTSEDCSRDAIVFVTVQGRAICSDPNNKRVKNAVKYLQSLERS
- desensitization of the receptor to subsequent stimulation with C27 and C19 (CCR4 [4]; CCR4 transfectants, pretreatment with 100 nM TARC): desensitized the receptor
- desensitization of the receptor to subsequent stimulation with TARC, C27 or C19 (chemotaxis) (CCR4 [2]; HEK293/CCR4, pretreatment TARC or 2 μg/ml C27 or C19, 37° C., 30 min): could desensitize the receptor
- internalization of CCR4-EGFP (CCR4 [5]): internalization of chemokine receptors induced by TARC

Reference: patent US7465453B2, “Polypeptide fragments of CKLF1” (Peking University, priority 2004, dated 2008)
